Assay results reported in US20020164667A1 (VEGENICS, published 2002).
Ends that are not written are not given here.

T1: human VEGFR3-Fc fusion protein (human, UniProt P35916 25-329, limits assumed)
T1 construct: domain: first three Ig homology domain of the extracellular portion; Coated on microtiter wells at 1 ug/ml; not shown: Fc tail of human IgG1, cloned in frame after the VEGFR3 Ig homology domains
T1 sequence (looked up): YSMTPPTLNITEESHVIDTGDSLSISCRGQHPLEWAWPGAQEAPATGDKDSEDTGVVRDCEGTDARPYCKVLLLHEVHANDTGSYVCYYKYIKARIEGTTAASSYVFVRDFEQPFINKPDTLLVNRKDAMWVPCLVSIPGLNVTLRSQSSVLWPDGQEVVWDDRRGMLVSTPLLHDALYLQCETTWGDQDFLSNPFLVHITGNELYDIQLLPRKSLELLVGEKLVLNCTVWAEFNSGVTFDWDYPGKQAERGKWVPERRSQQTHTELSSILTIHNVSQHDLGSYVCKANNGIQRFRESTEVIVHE

B1: CYGFLWGMC (SEQ ID NO: 60) (peptide)
peptide: CYGFLWGMC
modifications: not fully specified (bridges); cysteine pairing not given here; also: displayed on fUSE5 phage as coat protein fusion, flanking residues not given here
notes: also called CX7C library clone

target: T1, human VEGFR3-Fc fusion protein; experiment: phage attachment assay, VEGFR3-Fc-coated versus BSA-blocked microtiter wells
Procedure: VEGFR3-Fc fusionprotein (1 μg/ml) was coated on microtiter wells (96-well plate) overnight at 4° C. Wells were then saturated with 5% BSA. In the first panning, the libraries were incubated overnight at 4° C. in 50 mM TBS buffer (Tris-HCl/0.1M NaCl, pH 7.5) containing 1% BSA. After extensive washing, the bounded phages were eluted with a low pH buffer (0.1M glycine-HCl, 0.1%BSA, 0.05% phenol red, pH2.2)(Koivunen et al., Methods Mol. Biol. 129:3-17,1999; Koivunenet al, Biotechnol., 18(8):768-74,1999; Smoth et al., Methods Enzymol., 217:228-357, 1993). In subsequent pannings, the amplified phages using the K91kan E. coli.(Koivunen et al., Methods Mol. Biol. 129:3-17, 1999) were allowed to bind for 1 h at room temperature. Randomly selected clones from the fourth round of panning were amplified overnight and sequenced using ABIPRISM 310 Genetic Analyzer. The binding of each clone to VEGFR-3 was verified by an attachment assay, in which the cloned phage were incubated for 60 minutes in VEGFR3-Fc-coated or BSA-blocked microtiter wells. Thewells were washed ten times with TBS containing 0.5% Tween-20. The bound phages were titered by calculating the number of colonies.

Binding result, binds:
CSRWRILGC (also called CX7C library clone) [CSRWRILGC (SEQ ID NO: 61)]
SGYWWDTWF (also called X9 library clone) [SGYWWDTWF (SEQ ID NO: 36)]
SAVFRGRWL (also called X9 library clone) [SAVFRGRWL (SEQ ID NO: 42)]
YSSSMRWRH (also called X9 library clone) [YSSSMRWRH (SEQ ID NO: 40)]
CMDPWGGWC (also called CX7C library clone) [CMDPWGGWC (SEQ ID NO: 63)]
KVGWSSPDW (also called X9 library clone) [KVGWSSPDW (SEQ ID NO: 38)]
RWRGNAYPG (also called X9 library clone) [RWRGNAYPG (SEQ ID NO: 41)]
CRALDSALAC (also called CX8C library clone) [CRALDSALAC (SEQ ID NO: 58)]
CWQLGRNWIC (also called CX8C library clone) [CWQLGRNWIC (SEQ ID NO: 55)]
FVGWTKVLG (also called X9 library clone) [FVGWTKVLG (SEQ ID NO: 39)]
WFSASLRFR (also called X9 library clone) [WFSASLRFR (SEQ ID NO: 43)]
B1
CVEVQITQEC (also called CX8C library clone) [CVEVQITQEC (SEQ ID NO: 56)]
CGQMCTVWCSSGC (also called CX3CX3CX3C library clone) [CGQMCTVWCSSGC (SEQ ID NO: 66)]
CHKWQKRQC (also called CX7C library clone) [CHKWQKRQC (SEQ ID NO: 62)]
SCYWRDTWF (also called X9 library clone) [SCYWRDTWF (SEQ ID NO: 37)]
CAGKASSLWC (also called CX8C library clone) [CAGKASSLWC (SEQ ID NO: 57)]
CVWDHGVC [CVWDHGVC (SEQ ID NO: 65)]
CRKVWDIRC (also called CX7C library clone) [CRKVWDIRC (SEQ ID NO: 64)]
CYGFEAAWC (also called CX7C library clone) [CYGFEAAWC (SEQ ID NO: 59)]
